Results: US11274126B2, “pH-sensitive cyclic peptides” (University of Rhode Island Board of Trustees, priority 2016, dated 2022)

Key:
4T1 breast tumors = test: Ex vivo fluorescence imaging of tumor and organs after IV Alexa546-peptides; format: in vivo, mice; details: after IV administration
Protocol: 4T1 breast tumors were established by subcutaneous injection of 4T1 cells (8×10^5 cells/0.1 mL/flank) in the right flank of adult female BALB/c mice (about 19-22 g weight) obtained from Harlan Laboratories. When tumors reached about 6 mm in diameter single tail vein injections of 100 μl of 40 μM Alexa546-peptides were performed. […] At 4 h post-injection euthanization and necropsy was performed followed by ex vivo imaging of tumor, kidneys, liver, lungs and muscle. Mean fluorescence intensity of tumor and organs was calculated using Kodak software.

HeLa cells [1] = details: at the concentrations used, treatment of 2-4 h; previous report; cited from earlier work
HeLa cells [2] = format: cell-based, Human; details: up to 4 μM, 3 h at pH 7.4 or 6.0, viability at 48 h
Protocol: HeLa cells were loaded in the wells of 96-well plates (5,000 cells per well) and incubated overnight. Growth medium was replaced with the medium without FBS pH 6.0 or pH 7.4 containing increasing amounts of peptide-amanitin construct (0.5, 1, 2, and 4 μM). The construct was removed after 3 h. After 48 h of incubation in standard growth medium, a colorimetric reagent (CellTiter 96 AQueous One Solution Assay, Promega) was added for 1 h followed by measuring absorbance at 490 nm to assess cell viability. All samples were prepared in triplicate.

HeLa cells [3] = test: Fluorescent microscopy with Trypan Blue quenching; format: cell-based, Human; details: 5 μM, 30 min at pH 6.2 versus 7.4
Protocol: HeLa cells (8,000 cells per dish) were seeded in the center of a 35-mm dish with a 10-mm glass-bottom window coated with collagen (MatTek Corp). Next day cells were incubated with 5 μM of FITC-labeled c[E4W5C] (SEQ ID NO: 5) peptide for 30 min in DMEM medium without FBS at pH 7.4 or 6.2. Cells were washed 5 times at pH 7.4 and 0.4% Trypan Blue was added for 5 min ( 1/10 of the total volume). Fluorescent images were acquired with a Retiga CCD camera (Qimaging) mounted to an inverted Olympus IX71 microscope (Olympus America, Inc.).

[4] = Steady-state tryptophan fluorescence of peptides in buffer and with POPC liposomes; format: physicochemical; details: for S, normalized area under the spectra, Pep-PC, pH3: POPC liposomes pH 3; for S, normalized area under the spectra, Pep-PC, pH3 / S, normalized area under the spectra, Pep-PC, pH8: normalized to peptide at pH 8 without POPC; for S, normalized area under the spectra, Pep-PC, pH8: POPC liposomes pH 8; for λmax, Pep-PC, pH3: in the presence of POPC liposomes at pH 3; for λmax, Pep-PC, pH3 / λmax, Pep-PC, pH8 / λmax, maximum position of the fluorescence spectrum, Pep, pH8: excitation 280 nm; for λmax, Pep-PC, pH8: in the presence of POPC liposomes at pH 8; for λmax, maximum position of the fluorescence spectrum, Pep, pH8: peptide in phosphate buffer pH 8, no liposomes
Protocol: Liposomes such as Large Unilamellar Vesicles (LUVs) were prepared by extrusion. POPC, 1-palmitoyl-2-oleoyl-sn-glycero-3-phosphocholine (Avanti Polar Lipids), or a mixture of POPC with 0.5% of 18:1 NBD-PE, 1,2-dioleoyl-sn-glycero-3-phosphoethanolamine-N-7-nitro-2-1,3-benzoxadiazol-4-yl ammonium salt (Avanti Polar Lipids) were dissolved in chloroform, desolvated on a rotary evaporator, and dried under high vacuum for several hours. The phospholipid film was then rehydrated in 10 mM phosphate buffer pH 8.0, vortexed until the lipid bilayer was completely dissolved, and repeatedly (15-21 times) extruded through the membranes with 50 nm pore sizes to obtain LUVs.
Freshly prepared peptides and POPC vesicles were mixed to have 5 μM of a peptide and 1.25 mM of lipids in the final solution. Steady-state fluorescence measurements were carried out on a PC1 spectrofluorometer (ISS, Inc.) under temperature control at 25° C. Tryptophan fluorescence was excited at 280 nm (there is no Phe or Tyr in the peptides) and recorded with the excitation and emission slits set at 1 nm. The polarizers in the excitation and emission paths were set at the “magic” angle (54.7o from the vertical orientation) and vertically (0°), respectively. Steady state CD measurements were carried out in MOS 450 spectropolarimeter (Bio-Logic, Inc.) with the same concentrations of peptide and lipids as it were used in fluorescence measurements.

[5] = Dual quenching (acrylamide / 10-DN); format: physicochemical; details: POPC liposomes; for percentage of fluorescence quenching, Pep-PC + 10-DN pH3 / percentage of fluorescence quenching, Pep-PC + AC pH3: pH 3; for percentage of fluorescence quenching, Pep-PC + 10-DN pH8 / percentage of fluorescence quenching, Pep-PC + AC pH8: pH 8; for percentage of fluorescence quenching, Pep-PC + AC pH3 / percentage of fluorescence quenching, Pep-PC + AC pH8: acrylamide
Protocol: POPC liposomes without and with 10% of the lipids replaced by 10-doxylnonadecane (10-DN) (Avanti Polar Lipids) were prepared in 10 mM citrate-phosphate buffer pH 8.0. Peptides and POPC liposomes were mixed to generate final concentrations of 7 μM peptide and 2.1 mM POPC without and with 10-DN. […] To the samples of POPC liposomes containing no 10-DN, acrylamide (Sigma-Aldrich) was added to have a final concentration of 235 mM in solution. Concentration of peptides in all samples was kept constant. To observe quenching of tryptophan fluorescence by 10-DN or acrylamide, the tryptophan fluorescence was recorded as described above. The appropriate POPC blanks were measured and subtracted from the measured spectra before analysis. The percentage of quenching was calculated.
To establish localization of the peptides within a lipid bilayer of the membrane, a dual quenching assay (Caputo G A & London E (2003) Biochemistry 42(11):3265-3274) was used (FIG. 6 and Table 8). Effective quenching of fluorescence by acrylamide would occur only for tryptophan residues exposed to polar parts of outer or inner leaflets of the bilayer. At the same time, tryptophan residues located in the middle of a membrane would be effectively quenched by 10-DN. The result of the dual quenching assay allows the determination of whether tryptophan residues are located in the middle of a membrane or close to the polar headgroups of the bilayer. […] Therefore, FRET assays were also performed (McIntyre J C & Sleight R G (1991) Biochemistry 30(51):11819-11827; Clausell et al. (2006) J Phys Chem B 110(9):4465-4471) (FIG. 7). First, POPC liposomes symmetrically-labeled with NBD dye were prepared. Then, membrane-impermeable dithionite was used to modify chemically and quench the fluorescence of NBD at the outer leaflet of the bilayer followed by removal of dithionite by gel filtration. As a result, asymmetrically-labeled liposomes with NBD only at the inner leaflet were obtained. The c[E4W5C] […] All other peptides are located at the outer leaflet of the bilayer at pH 8. Among c[(WE)4WC] (SEQ ID NO: 2), c[(WE)5WC] (SEQ ID NO: 3), and c[(WE)3WC] (SEQ ID NO: 1) peptides, the peptide with smallest cycle, c[(WE)3WC]

Molecule	S, normalized area under the spectra, Pep-PC, pH3 [4]	S, normalized area under the spectra, Pep-PC, pH8 [4]	λmax, Pep-PC, pH3 [4] [nm]	λmax, Pep-PC, pH8 [4] [nm]	λmax, maximum position of the fluorescence spectrum, Pep, pH8 [4] [nm]	percentage of fluorescence quenching, Pep-PC + 10-DN pH3 [5] [%]	percentage of fluorescence quenching, Pep-PC + 10-DN pH8 [5] [%]	percentage of fluorescence quenching, Pep-PC + AC pH3 [5] [%]	other results
N=C(N)NCCC[C@@H]1NC(=O)[C@H](CS)NC(=O)[C@H](Cc2c[nH]c3ccccc23)NC(=O)[C@H](Cc2c[nH]c3ccccc23)NC(=O)[C@H](Cc2c[nH]c3ccccc23)NC(=O)[C@H](Cc2c[nH]c3ccccc23)NC(=O)[C@H](Cc2c[nH]c3ccccc23)NC(=O)[C@H](CCCNC(=N)N)NC(=O)[C@H](CCCNC(=N)N)NC(=O)[C@H](CCCNC(=N)N)NC1=O [c[R4W5C]]									accumulation in tumor and other organs (4T1 breast tumors): very minimal
CC[C@H](C)[C@@H]1NC(=O)CNC(=O)[C@@H]2Cc3c([nH]c4cc(O)ccc34)[S+]([O-])C[C@@H](NC(=O)CNC1=O)C(=O)N[C@@H](CC(N)=O)C(=O)N1C[C@H](O)C[C@H]1C(=O)N[C@@H]([C@@H](C)[C@@H](O)CO)C(=O)N2 (stereo partly drawn) [amanitin, alpha-amanitin]									cell death by amanitin alone (HeLa cells [1]): does not induce cell death
c[E4W5C]-GMBS-amanitin (cyclo(EEEEWWWWWC); also: GMBS-linked amanitin conjugate)									cell death / cytotoxic effect of peptide-amanitin construct (HeLa cells [2]): reduced significantly at both pHs
FITC-labeled peptide: c[E4W5C] peptide conjugated with Fluorescein-5-maleimide (cyclo(EEEEWWWWWC); also: conjugated with fluorescein-5-maleimide, site not given here)									fluorescent signal of cells after Trypan Blue quenching, low pH compared to normal pH (HeLa cells [3]): higher level of the fluorescent signal
l(CW(EW)4) (CWEWEWEWEW)	1.6 ± 0.4	2.3 ± 0.4	339.8 ± 0.6	346.6 ± 0.7	353.0 ± 0.7	31	20	56	percentage of fluorescence quenching, Pep-PC + AC pH8 [5]: 81%
c[(WE)5WC] (WEWEWEWEWEWC; cyclic)	2.1 ± 0.3	1.5 ± 0.3	341.2 ± 0.4	346.7 ± 1.2	350.3 ± 0.2	40	1.3	68	
c[(WE)3WC] (WEWEWEWC; cyclic)	1.7 ± 0.3	0.9 ± 0.1	341.7 ± 0.2	349.1 ± 0.7	351.0 ± 0.2	47	6	63	percentage of fluorescence quenching, Pep-PC + AC pH8 [5]: 83%
